US9969795

Biological target: recombinant influenza HA3-protein (from H3N2, Wyoming, March 2003, Sino Biological Inc.) (Influenza virus H3N2 (Wyoming, March 2003))
Experiment: SPR imaging (IBIS MX96), antibody captured on anti-human-IgG chip, HA3 1 ug/ml; global 1:1 fit in Scrubber2

B1: AT10_004 (antibody, V domains shown)
VH: QVQLVQSGAEVRKPGASVKVSCKASGYTFTRHGISWVRQAPGQGLEWMGWISAYTGDTDYAQKFQGRVTMTTDTSTNTAYMELRSLRSDDAAVYYCARLRLQGEVVVPPSQSNWFDPWGQGTLVTVSS
VL: EIVLTQSPATLSLYPGERATLSCRASQSVSRYLAWYQQKPGQAPRLLIYDASNRATGIPARFSGSGSGTDFTLTISSLEPEDFAVYYCQQRSNWLKITFGQGTRLEIKG
Which Kd does the source give for B1 here?
The Kd was 0.07 nM.

What about the koff of the same binder?
Its koff is 1e-06 s⁻¹.

What about the kon of the same binder?
The kon was 14000 M⁻¹ s⁻¹.
